# Assay results published in PMC314469, “Protein Interaction Networks by Proteome Peptide Scanning” (PLoS Biology, 2004).
# T1: amphyphisin SH3 (AMPH_HUMAN), P49418
# T1 chain: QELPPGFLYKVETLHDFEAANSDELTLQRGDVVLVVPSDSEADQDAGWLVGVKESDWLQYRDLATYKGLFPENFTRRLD
# Assays:
# [1] = biological target: T1, amphyphisin SH3 (AMPH_HUMAN), P49418; experiment: SPOT array
# [2] = biological target: endophilin SH3 (SH3G2_HUMAN), Q99962; experiment: SPOT array
Binder,"normalised SPOT signal, Boehringer light units (BLU); mean over the file's lines of this peptide [1]","normalised SPOT signal, Boehringer light units (BLU); mean over the file's lines of this peptide [2]"
KPRQIKRPLEDAIE [Q9UNI5 8-21],57.1,30.7
KPSRPPRPSRPPPP [O43584 85-98],8020,46000
KPVSPRRPWSPSKE [Q9HCL7 1184-1197],226,1760
KQASLKRPPTAGAQ [Q9UBC5 553-566],5.2,55.2
KQVSPRRPQATEAV [Q9Y3H2 190-203],147,125
KQYMLRRPALEDYV [Q9NWS7 207-220],79.4,148
KRGRPGRPPSTNKK [O00539 35-49],60.3,2490
KRIKLRRPRVSKQR [Q96FU1 26-39],12.4,20.7
ANPPPKRPVRASSR [Q9HCK1 771-784],14200,8740
KRKKFKRPPQRLFD [O00267 328-341],57.4,22.5
KRKKPSRPAKTRKR [Q9UNZ9 85-98],109,175
KRNSLKRPRDVDHR [Q9H8U9 166-179],27.9,0
KRVVPKKPPPSPQP [Q13438 518-532],64.7,278
KSKKFRRPDIQYPD [P10451 170-183],24.7,40.5
KSLKLRRPLYAHLA [Q13304 138-151],31.7,38.4
KSLPLRRPSYTLGM [O43166 958-971],51.5,322
KSLRIARPPKQGLN [P49815 945-958],168,398
KSPIPRRPTQSFVK [Q9ULL0 591-604],24.8,574
KSQGPAKPPPPRKP [Q13444 758-772],1320,7680
APALPARPHRGLST [Q9UFL7 72-85],5990,37600
KSQYFWRPKRMELS [Q9NYS8 813-826],733,232

Binder,"normalised SPOT signal, Boehringer light units (BLU); mean over the file's lines of this peptide [1]","normalised SPOT signal, Boehringer light units (BLU); mean over the file's lines of this peptide [2]"
KSRTLKRPTVLEPI [O60469 1933-1946],29.5,50.9
KTEKPERPSRERDR [Q02241 662-675],9120,403
KTFGIRRPLDPLDP [Q9C0J1 326-339],36.6,41.5
KTHPLIRPFKTLTE [Q15413 2649-2662],87.1,148
KTKGPSRPPLDAKI [Q9HC16 39-53],29,2250
KTKTLLRPERSRFD [O75705 229-242],239,80.8
KTLRLWRPPRYPRK [Q9NPT6 50-63],3230,223
KTTPLRRPTETNPV [P46100 660-673],31.5,57.5
KVFLLRRPPQAPLP [Q9P2E8 92-105],21,993
APALPPKPPKPTTV [P27986 303-317],199,2440
KVHVPARPYRVLNN [P46013 726-739],4080,1730
KVTAPRRPQRYSSG [Q9ULI4 1214-1227],16200,5620
KYSGPYKPPGILKQ [P20933 176-190],39.4,47.7
KYSAPRRPTATGDY [O00501 199-212],46.4,36.9
LAARLRRPSPPEPW [Q9P1Y6 933-946],77.5,1180
LAEELIRPERNTLV [Q14566 49-62],19.4,-0
LAEGINRPRKGHDA [O95985 371-384],99.3,198
LAELPGRPPIFWPG [Q9C056 106-120],53.5,98
LAELPQKPPPGDLP [Q9ULH1 746-760],62.4,37.5
LAHILRRPIIVYGV [Q9UGI0 529-542],45.6,629
APANLERPVRYIRK [Q9NYB9 126-139],3060,180
